Numbering of substitutions follows the chain as printed.
How the values were obtained:
EGF2+3 = target: T1, EGF2+3; test: flow cytometry on HEK293 cells expressing the DLL3 subdomain construct, PE anti-human secondary, control: secondary antibody only
T1 construct: also called Hu DLL3 EGF2+3 on HEK293 cells
T1 membrane-anchored DLL3 subdomain construct: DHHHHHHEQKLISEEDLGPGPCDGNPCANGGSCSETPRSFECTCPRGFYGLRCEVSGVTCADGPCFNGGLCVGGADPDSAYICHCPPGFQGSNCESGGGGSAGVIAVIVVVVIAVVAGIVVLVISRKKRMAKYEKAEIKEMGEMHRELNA
Outline: (§1)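 Binders tested on HEK293 cells displaying the DLL3 subdomain construct; bound molecules detected by flow cytometry using PE-conjugated anti-human secondary antibody. Negative control: cells with secondary antibody only.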

EGF4+5 = target: T2, EGF4+5; test: as above
T2 construct: also called Hu DLL3 EGF4+5 on HEK293 cells
T2 membrane-anchored DLL3 subdomain construct: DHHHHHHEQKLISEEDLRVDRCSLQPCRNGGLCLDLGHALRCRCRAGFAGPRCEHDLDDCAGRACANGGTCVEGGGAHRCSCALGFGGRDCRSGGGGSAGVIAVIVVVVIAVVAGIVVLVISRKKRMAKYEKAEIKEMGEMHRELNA
Outline: as §1

EGF5+6 = target: T3, EGF5+6; test: as above
T3 construct: also called Hu DLL3 EGF5+6 on HEK293 cells
T3 membrane-anchored DLL3 subdomain construct: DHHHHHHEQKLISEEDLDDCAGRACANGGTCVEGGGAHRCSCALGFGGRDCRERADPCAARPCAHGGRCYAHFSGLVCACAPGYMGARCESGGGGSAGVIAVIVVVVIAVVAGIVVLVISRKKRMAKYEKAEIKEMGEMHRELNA
Outline: as §1

EGF3+4 = target: T4, EGF3+4; test: as above
T4 construct: also called Hu DLL3 EGF3+4 on HEK293 cells
T4 membrane-anchored DLL3 subdomain construct: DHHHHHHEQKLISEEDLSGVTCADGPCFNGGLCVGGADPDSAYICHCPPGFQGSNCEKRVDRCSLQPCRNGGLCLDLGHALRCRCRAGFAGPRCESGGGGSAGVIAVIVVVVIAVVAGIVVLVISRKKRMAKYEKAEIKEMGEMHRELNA
Outline: as §1

EGF1+2 = target: T5, EGF1+2; test: as above
T5 construct: also called Hu DLL3 EGF1+2 on HEK293 cells
T5 membrane-anchored DLL3 subdomain construct: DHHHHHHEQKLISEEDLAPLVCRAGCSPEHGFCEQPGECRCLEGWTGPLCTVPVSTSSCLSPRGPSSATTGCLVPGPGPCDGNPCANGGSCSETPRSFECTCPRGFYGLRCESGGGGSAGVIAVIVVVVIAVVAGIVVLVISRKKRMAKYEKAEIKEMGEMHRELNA
Outline: as §1

Human CD3 E+G HuFc-6xHis = target: T6, Human CD3 E+G HuFc-6xHis (human); test: SPR (ProteOn XPR36), HuCD3E_HuCD3G-Fc amine-coupled, bispecific as analyte, Example 4B
T6 construct: also called hu CD3εγ-Fc
T6 sequence (chain, as listed by the source limits assumed): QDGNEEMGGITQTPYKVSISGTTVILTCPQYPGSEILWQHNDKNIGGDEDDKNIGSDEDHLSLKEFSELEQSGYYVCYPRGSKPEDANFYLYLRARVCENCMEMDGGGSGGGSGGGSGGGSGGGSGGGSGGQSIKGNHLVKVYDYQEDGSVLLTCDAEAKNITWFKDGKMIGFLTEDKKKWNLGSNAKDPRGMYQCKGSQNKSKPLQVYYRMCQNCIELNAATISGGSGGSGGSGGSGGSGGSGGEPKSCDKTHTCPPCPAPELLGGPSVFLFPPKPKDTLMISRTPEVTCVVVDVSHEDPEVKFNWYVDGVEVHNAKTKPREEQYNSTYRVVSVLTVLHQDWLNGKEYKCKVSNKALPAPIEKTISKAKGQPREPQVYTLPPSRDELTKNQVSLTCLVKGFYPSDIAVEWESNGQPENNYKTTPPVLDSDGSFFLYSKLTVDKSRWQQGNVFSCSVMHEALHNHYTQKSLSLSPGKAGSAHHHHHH
Outline: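 Human CD3ε/γ-Fc fusion is amine-coupled to the chip at pH 4.5. Anti-DLL3/CD3 bispecifics are injected as analyte in PBS-T-EDTA at 30 μl/min, with 600 s association and 1800 s dissociation. Binding kinetics are measured by SPR.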

[1] = target: T7, FLAG-tagged human DLL4 full length (human, UniProt Q9NR61 1-685); test: flow cytometry on HEK293 cells expressing human DLL4 (HEK293-huDLL4), PE anti-human secondary, control: secondary antibody only
T7 construct: also called human DLL4 on HEK293 cells
T7 sequence (Q9NR61 other isoform, or with tags, fused parts or gaps limits assumed): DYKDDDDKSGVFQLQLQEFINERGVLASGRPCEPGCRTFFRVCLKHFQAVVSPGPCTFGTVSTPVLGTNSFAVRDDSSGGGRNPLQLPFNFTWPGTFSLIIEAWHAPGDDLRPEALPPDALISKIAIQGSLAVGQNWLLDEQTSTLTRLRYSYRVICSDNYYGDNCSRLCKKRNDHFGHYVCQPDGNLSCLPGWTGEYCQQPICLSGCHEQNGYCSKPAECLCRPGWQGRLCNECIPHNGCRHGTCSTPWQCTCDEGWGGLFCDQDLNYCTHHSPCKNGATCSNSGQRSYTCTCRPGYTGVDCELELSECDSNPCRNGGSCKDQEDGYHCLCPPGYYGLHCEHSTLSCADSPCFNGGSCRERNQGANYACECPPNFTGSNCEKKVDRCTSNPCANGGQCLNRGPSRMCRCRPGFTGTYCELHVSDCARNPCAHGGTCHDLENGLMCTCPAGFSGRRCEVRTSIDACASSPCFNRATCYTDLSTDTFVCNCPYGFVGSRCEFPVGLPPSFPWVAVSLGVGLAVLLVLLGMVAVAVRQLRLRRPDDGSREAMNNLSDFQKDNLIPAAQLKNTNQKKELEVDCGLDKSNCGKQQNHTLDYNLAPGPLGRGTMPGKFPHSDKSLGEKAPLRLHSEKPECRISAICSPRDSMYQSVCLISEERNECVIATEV
Procedure: Bound molecules were detected with PE-conjugated anti-human secondary antibody (Sigma-Aldrich, #P8047). As negative control, cells were incubated with secondary antibody only. The samples were measured by flow-cytometry.

[2] = target: T8, EGF6+MEMBRANE PROXIMAL PEPTIDE; test: flow cytometry on HEK293 cells expressing the DLL3 subdomain construct, PE anti-human secondary, control: secondary antibody only
T8 construct: also called Hu DLL3 EGF6+membrane proximal peptide on HEK293 cells
T8 membrane-anchored DLL3 subdomain construct: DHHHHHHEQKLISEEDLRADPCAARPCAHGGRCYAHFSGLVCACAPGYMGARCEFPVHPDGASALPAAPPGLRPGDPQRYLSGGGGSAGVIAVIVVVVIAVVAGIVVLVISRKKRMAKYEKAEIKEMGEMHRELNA
Outline: as §1

B1: DLL3#2/CD3#1 (bispecific antibody, human IgG1, kappa, lambda, L234A L235A)
chain 1: DIQMTQSPSAMSASVGDRVTITCRASQGISNYLAWFQQKPGKVPEPLIYAASSLQSGVPSRFSGSGSVTEFTLTISSLQPEDFATYYCLQHNSSPYTFGQGTKLEIKRTVAAPSVFIFPPSDEQLKSGTASVVCLLNNFYPREAKVQWKVDNALQSGNSQESVTEQDSKDSTYSLSSTLTLSKADYEKHKVYACEVTHQGLSSPVTKSFNRGECGGGGSEGKSSGSGSESKSTEGKSSGSGSESKSTGGGGSQVQLVQSGAEVKKPGASVKVSCKASGYTFTSYYMHWVRQAPGQGLEWMGIINPSGGSTSYAQKFQGRVTMTRDTSTSTVYMELSSLRSEDTAVYYCARGEAVGGNYYYYGMDVWGQGTTVTVSSASTKGPSVFPLAPSSKSTSGGTAALGCLVKDYFPEPVTVSWNSGALTSGVHTFPAVLQSSGLYSLSSVVTVPSSSLGTQTYICNVNHKPSNTKVDKRVEPKSCDKTHTCPPCPAPEAAGGPSVFLFPPKPKDTLMISRTPEVTCVVVDVSHEDPEVKFNWYVDGVEVHNAKTKPREEQYNSTYRVVSVLTVLHQDWLNGKEYKCKVSNKALPAPIEKTISKAKGQPREPQVYTLPPSREEMTKNQVSLWCLVKGFYPSDIAVEWESNGQPENNYKTTPPVLDSDGSFFLYSKLTVDKSRWQQGNVFSCSVMHEALHNHYTQKSLSLSPG
chain 2: EAVVTQEPSLTVSPGGTVTLTCRSSTGAVTTSNYANWVQEKPGQLPRGLIGGTNKRAPWVPARFSGSLLGGKAALTLSGAQPEDEAEYFCALWYSNLWVFGGGTKLTVLGQPKAAPSVTLFPPSSEELQANKATLVCLISDFYPGAVKVAWKADGSPVNTGVETTTPSKQSNNKYAASSYLSLTPEQWKSHRSYSCQVTHEGSTVEKTVAPAECSGGGGSEGKSSGSGSESKSTEGKSSGSGSESKSTGGGGSEVQLVESGGGLVQPGGSLKLSCAASGFTFNTYAMNWVRQAPGKGLEWVARIRSKYNNYATYYADSVKDRFTISRDDSKNTAYLQMNNLKTEDTAVYYCVRHGNFGNSYVSWFAYWGQGTLVTVSAASTKGPSVFPLAPSSKSTSGGTAALGCLVKDYFPEPVTVSWNSGALTSGVHTFPAVLQSSGLYSLSSVVTVPSSSLGTQTYICNVNHKPSNTKVDKRVEPKSCDKTHTCPPCPAPEAAGGPSVFLFPPKPKDTLMISRTPEVTCVVVDVSHEDPEVKFNWYVDGVEVHNAKTKPREEQYNSTYRVVSVLTVLHQDWLNGKEYKCKVSNKALPAPIEKTISKAKGQPREPQVYTLPPSREEMTKNQVSLSCAVKGFYPSDIAVEWESNGQPENNYKTTPPVLDSDGSFFLVSKLTVDKSRWQQGNVFSCSVMHEALHNRFTQKSLSLSPG
notes: Heterodimer of one DLL3 chain and one CD3 chain (scFab-Fc, knob-in-hole)
B1: no binding (tested: 1.6 nM) (EGF2+3); no binding (tested: 1.6 nM) (EGF4+5); no binding (tested: 1.6 nM) (EGF5+6). For the same binder, the binding result (EGF3+4) was “no binding (tested: 1.6 nM)”, the binding result (EGF1+2) was “no binding (tested: 1.6 nM)” and the Kd (Human CD3 E+G HuFc-6xHis) was 3 nM. B1: no binding (tested: 1.6 nM) [1].

B2: DLL3#6/CD3#1 (bispecific antibody, human IgG1, kappa, lambda, L234A L235A)
chain 1: DIQLTQSPSFLSTSVGDRVTITCRASQDISNYFAWYQQKPGKAPKLLIYAASTLQSGVPSRFSGGGSGTEFTLTISSLQPEDFATYYCQQLNSYPYTFGQGTKLEIKRTVAAPSVFIFPPSDEQLKSGTASVVCLLNNFYPREAKVQWKVDNALQSGNSQESVTEQDSKDSTYSLSSTLTLSKADYEKHKVYACEVTHQGLSSPVTKSFNRGECGGGGSEGKSSGSGSESKSTEGKSSGSGSESKSTGGGGSQVQLQESGPGLVKPSETLSLTCTVSGGSISSYFWSWIRQPAGKGLEWIGRIYTSGSTNYNPSLNSRLTMSVDTSKNQFSLKLSSVTAADTAVYYCARRGDWGGFDIWGQGTVVTVSSASTKGPSVFPLAPSSKSTSGGTAALGCLVKDYFPEPVTVSWNSGALTSGVHTFPAVLQSSGLYSLSSVVTVPSSSLGTQTYICNVNHKPSNTKVDKRVEPKSCDKTHTCPPCPAPEAAGGPSVFLFPPKPKDTLMISRTPEVTCVVVDVSHEDPEVKFNWYVDGVEVHNAKTKPREEQYNSTYRVVSVLTVLHQDWLNGKEYKCKVSNKALPAPIEKTISKAKGQPREPQVYTLPPSREEMTKNQVSLWCLVKGFYPSDIAVEWESNGQPENNYKTTPPVLDSDGSFFLYSKLTVDKSRWQQGNVFSCSVMHEALHNHYTQKSLSLSPG
chain 2: B1 chain 2
notes: as for B1
B2: no binding (tested: 1.6 nM) (EGF2+3); no binding (tested: 1.6 nM) [2]; no binding (tested: 1.6 nM) (EGF4+5). B2: no binding (tested: 1.6 nM) (EGF5+6); no binding (tested: 1.6 nM) (EGF3+4); no binding (tested: 1.6 nM) (EGF1+2). The Kd (Human CD3 E+G HuFc-6xHis) was 2 nM and the binding result [1] was “no binding (tested: 1.6 nM)”.

B3: DLL3#3/CD3#1 (bispecific antibody, human IgG1, kappa, lambda, L234A L235A)
chain 1: DIQMTQSPSAMSASVGDRVTITCRASQGISNYLVWFQQKPGKAPKRLIYAVSSLYSGVPSRFSGSGSGTEFTLTISSLQPEDFATYYCLQHDSYPYTFGQGTKLEIKRTVAAPSVFIFPPSDEQLKSGTASVVCLLNNFYPREAKVQWKVDNALQSGNSQESVTEQDSKDSTYSLSSTLTLSKADYEKHKVYACEVTHQGLSSPVTKSFNRGECGGGGSEGKSSGSGSESKSTEGKSSGSGSESKSTGGGGSQVQLVQSGAEVKKPGASVKVSCKASGYTFTSYYVHWVRQAPGQGLEWMVIINPGGGTTSYAQKFLGRVTMTRDTSTNTVYMELKSLRSEDTAVYYCARGEAVTGNYFYYGMDVWGQGTTVTVSSASTKGPSVFPLAPSSKSTSGGTAALGCLVKDYFPEPVTVSWNSGALTSGVHTFPAVLQSSGLYSLSSVVTVPSSSLGTQTYICNVNHKPSNTKVDKRVEPKSCDKTHTCPPCPAPEAAGGPSVFLFPPKPKDTLMISRTPEVTCVVVDVSHEDPEVKFNWYVDGVEVHNAKTKPREEQYNSTYRVVSVLTVLHQDWLNGKEYKCKVSNKALPAPIEKTISKAKGQPREPQVYTLPPSREEMTKNQVSLWCLVKGFYPSDIAVEWESNGQPENNYKTTPPVLDSDGSFFLYSKLTVDKSRWQQGNVFSCSVMHEALHNHYTQKSLSLSPG
chain 2: B1 chain 2
notes: as for B1
B3: no binding (tested: 1.6 nM) (EGF2+3); no binding (tested: 1.6 nM) (EGF4+5); no binding (tested: 1.6 nM) (EGF5+6). The binding result (EGF3+4) was “no binding (tested: 1.6 nM)”, the binding result (EGF1+2) was “no binding (tested: 1.6 nM)” and the Kd (Human CD3 E+G HuFc-6xHis) was 2 nM. B3: no binding (tested: 1.6 nM) [1].

B4: DLL3#4/CD3#1 (bispecific antibody, human IgG1, kappa, lambda, L234A L235A)
chain 1: not shown
chain 2: B1 chain 2
notes: as for B1
B4: no binding (tested: 1.6 nM) (EGF2+3); no binding (tested: 1.6 nM) [2]; no binding (tested: 1.6 nM) (EGF5+6). The binding result (EGF1+2) was “no binding (tested: 1.6 nM)”, the Kd (Human CD3 E+G HuFc-6xHis) was 2 nM and the binding result [1] was “no binding (tested: 1.6 nM)”.

B5: DLL3#3/CD3#2 (bispecific antibody, human IgG1, kappa, lambda, L234A L235A)
chain 1: B3 chain 1
chain 2: B1 chain 2 with N309I
notes: as for B1
B5: no binding (tested: 1.6 nM) (EGF2+3); no binding (tested: 1.6 nM) (EGF4+5); no binding (tested: 1.6 nM) (EGF5+6). For the same binder, the binding result (EGF3+4) was “no binding (tested: 1.6 nM)”, the binding result (EGF1+2) was “no binding (tested: 1.6 nM)” and the Kd (Human CD3 E+G HuFc-6xHis) was 7 nM. B5: no binding (tested: 1.6 nM) [1].
